Assays:
[1] = target: MsRv1272c (MSMEG_5009) from Mycobacterium smegmatis (Mycobacterium smegmatis (Msm) mc2 155) (UniProt A0R272)
[2] = target: MsRv1272c (MSMEG_5009) from Mycobacterium smegmatis (Mycobacterium smegmatis (Msm) mc2 155) (UniProt A0R272); assay: SEC

MsRv1273c (MSMEG_5008) from Mycobacterium smegmatis (from UniProt A0R271 1-578) (natural protein)
basal ATPase activity of the MsRv1273c/72c complex in peptidiscs (malachite green) (nM Pi min^–1 mg^–1) [1]: 148 | basal ATPase activity of the MsRv1273c/72c complex in proteoliposomes (malachite green) (nM Pi min^–1 mg^–1) [1]: 181 | stoichiometry N [2]: 1

Reference: paper PMC12038006, “Structure and mechanism of a mycobacterial isoniazid efflux pump MsRv1273c/72c with a degenerate nucleotide-binding site” (Nature Communications, 2025)
